The experiment deals with HBV 21 kDa viral core protein (p21) (human hepatitis B virus (HBV)).

For the substance “Met-p22 (precore protein lacking the signal peptide sequence and having instead an initial methionine), expressed from pCMVKM22”, the HBV DNA replication, titration of plasmid molar ratios is 15 fold.
